From publication doi:10.1101/2022.10.04.510915 come the findings set out here.

Test [1] concerns the target JetB (E. coli GF4-3), as subunit of the JetABC complex (E. coli strain GF4-3). In words: cryo-EM structure.
The target in test [2] is JetC (E. coli GF4-3), as subunit of the JetABC complex (E. coli strain GF4-3). In words: cryo-EM structure.

As a reminder, the stoichiometry N is a count of units in the complex or per binding partner. Regarding “JetB (E. coli GF4-3), as subunit of the JetABC complex (natural protein)”, the stoichiometry N in test [1] turned out to be 2.

As to “JetC (E. coli GF4-3), as subunit of the JetABC complex (natural protein)”, the stoichiometry N in test [2] is 2.
